Results on two substances are retold here after publication PMC5636944.

The target of this assay is K63 diubiquitin (K63 diUb). The experiment in a line: SPR, p62 immobilised on CM5 chip. For orientation: SPR reads the build-up and loss of mass on a sensor chip optically.

On to “p62/SQSTM1 (sequestosome-1) 320-436 (from UniProt Q13501) semisynthetic p62 2Pi (pS403/pS407)”, for which the KD entry (reference: recombinant p62 WT, unphosphorylated, sites S403,S407) is recorded as “stronger; reference 167.9 ± 13.0 μM”.
Take “p62/SQSTM1 (sequestosome-1) 320-436 (from UniProt Q13501) p62 2Pi (pS403/pS407)”: the KD result is, setting by setting: (reference: p62S403Pi (monophosphorylated), sites S407) “stronger; reference 4.4 ± 0.4 μM”; (reference: p62S407Pi (monophosphorylated), sites S403) “stronger; reference 14.8 ± 1.0 μM”.
